From PMC10359466 come the findings set out here.

One data set addresses TbRPA1 DBD-AB W188A (Trypanosoma brucei, UniProt Q384B5 1-257, W188A). Description: EMSA, MST; 20 mM Tris pH 7.5, 10 mM NaCl, 10 mM MgCl2, 2 mM DTT, 10% glycerol, 0.1 mg/ml BSA, 15 min, room temperature; EMSA 2 nM probe (gel at 4 C), MST 10 nM probe. Conditions: protein: recombinant; tags: N-term 6xHis; label: 5' Cy5 (MST) or 5' IRDye800 (EMSA); single strand.
In the next data set the target is TbRPA1 DBD-AB F64A (Trypanosoma brucei, UniProt Q384B5 1-257, F64A). Described as above. Conditions: protein: recombinant; tags: N-term 6xHis; label: 5' Cy5 (MST) or 5' IRDye800 (EMSA); single strand. (Mobility shift assays separate free from complexed probe on a gel.)
Another data set has as its target TcRPA1 DBD-AB T105S (Trypanosoma cruzi, UniProt Q4DXC9 2-257, T105S). Description: MST; 20 mM Tris pH 7.5, 10 mM NaCl, 10 mM MgCl2, 2 mM DTT, 10% glycerol, 0.1 mg/ml BSA, 15 min, room temperature; EMSA 2 nM probe (gel at 4 C), MST 10 nM probe. Conditions: protein: recombinant; tags: N-term 6xHis; label: 5' Cy5 (MST) or 5' IRDye800 (EMSA); single strand.
A further data set has as its target HsRPA1 DBD-AB (Homo sapiens, UniProt P27694 181-427). The data set is described as above. Conditions: protein: recombinant; tags: 6xHis (pET28a); label: 5' Cy5 (MST) or 5' IRDye800 (EMSA); single strand.
The next data set has as its target TbRPA1 DBD-AB S105T (Trypanosoma brucei, UniProt Q384B5 1-257, S105T). The description is as above. Conditions: protein: recombinant; tags: N-term 6xHis; label: 5' Cy5 (MST) or 5' IRDye800 (EMSA); single strand.
A further data set concerns the target T1, TbRPA1 DBD-AB (Trypanosoma brucei, UniProt Q384B5 1-257).
T1 sequence: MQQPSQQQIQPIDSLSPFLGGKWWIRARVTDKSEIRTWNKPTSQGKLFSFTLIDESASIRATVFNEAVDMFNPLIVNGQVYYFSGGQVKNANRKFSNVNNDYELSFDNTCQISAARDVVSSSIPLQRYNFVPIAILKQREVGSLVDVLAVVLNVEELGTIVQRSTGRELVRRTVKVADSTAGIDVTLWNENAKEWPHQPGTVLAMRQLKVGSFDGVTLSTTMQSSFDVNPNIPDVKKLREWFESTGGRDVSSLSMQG
The data set is described as above. Conditions: protein: recombinant; tags: N-term 6xHis (pET28a); label: 5' Cy5 (MST) or 5' IRDye800 (EMSA); single strand.

Sequence of HsRPA1 DBD-AB (P27694 181-427): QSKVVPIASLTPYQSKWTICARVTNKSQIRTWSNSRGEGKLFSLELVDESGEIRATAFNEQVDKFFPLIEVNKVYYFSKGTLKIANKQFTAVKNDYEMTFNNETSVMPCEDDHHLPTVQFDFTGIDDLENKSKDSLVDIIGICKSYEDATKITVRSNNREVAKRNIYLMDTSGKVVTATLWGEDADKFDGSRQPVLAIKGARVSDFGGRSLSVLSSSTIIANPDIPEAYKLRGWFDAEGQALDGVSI

B1: dT32 (ssDNA)
DNA: TTTTTTTTTTTTTTTTTTTTTTTTTTTTTTTT
Take B1: the binding result with TbRPA1 DBD-AB W188A and with TbRPA1 DBD-AB F64A was “no binding” throughout. Further, the Kd with TcRPA1 DBD-AB T105S was 52.4 ± 27.9 nM; with HsRPA1 DBD-AB, 48 ± 37.4 nM; with TbRPA1 DBD-AB S105T it was 21.9 ± 2.7 nM; with TbRPA1 DBD-AB, 24.6 ± 12.4 nM.

B2: dT20 (ssDNA)
DNA: TTTTTTTTTTTTTTTTTTTT
Regarding B2, the Kd in the data set with TbRPA1 DBD-AB is 30.5 nM.

Broadly, the Kd is the equilibrium constant for the complex coming apart.
